Test results as given in US9441018B2, “Gene from tidal flat metagenome and a novel protein displaying both phospholipase and lipase activities” (KOREA RESEARCH INSTITUTE OF BIOSCIENCE AND BIOTECHNOLOGY, priority 2011, dated 2016).

Assays:
[1] = pH-stat / pH titration of released fatty acid (hydrolysis of triacylglyceride, olive oil, phosphatidylcholine); type: biochemical; conditions: for specific enzyme activity: pH 8.0, pH titrator
Protocol: (§1) First method was pH-stat.
The activity of MPIaG to hydrolyze triacylglyceride, olive oil, and phosphatidylcholine was measured by titrating free fatty acid using pH titrator (842 Tirando, Metrohm). By adding 10 mM NaOH solution, pH of the substrate emulsion was regulated to 8.0. Then, a proper amount of enzyme solution was added thereto. Excretion rate of fatty acid was measured by using pH titrator for 5 minutes. […] To exclude the non-enzymatic hydrolysis value of the substrates, the activity was measured without enzyme addition for every measurement under different conditions, which would be the control reaction.
To further investigate specificity to substrate each having different carbon length, pH titration was performed with triacylglycerides such as tributyrin (C4), tricaprylin (C8), tricaprin (C10), trilaurin (C12), tripalmitin (C16), and triolein (C18:1).

[2] = Melting temperature by differential scanning calorimetry (DSC); type: physicochemical
Protocol: (§2) To investigate the enzyme activity over pH, the activities were measured in different pH buffers. […] After staying at different pH for 180 minutes, the remaining activity was measured. As a result, the enzyme activity was maintained stably in the pH range of 5˜10 (FIG. 5). Phospholipase and lipase activity over temperature was also investigated. […] The enzyme activity was still observed at 5° C. (39% of maximum activity). When the temperature was raised more than the optimum activity temperature above, the activity was decreased rapidly (FIG. 6). In addition, melting temperature was also investigated by using differential scanning calorimetry (DSC). As a result, the melting temperature was 38.5° C. (FIG. 7).
So, it was expected that the structural stability was increased by calcium ion (FIG. 7).

[3] = Clear zone on solid medium supplemented with tricaprylin emulsion (lipase activity); type: biochemical; conditions: solid nutritive medium
From the text: When tricaprylin is decomposed by lipase, clear zone is formed. So, the colonies forming such clear zone were selected.
(§3) The recombinant plasmid pFosPlaG derived from the metagenome library was isolated in the solid nutritive medium supplemented with tricaprylin emulsion which has been widely used for the isolation/confirmation of lipase gene. To investigate the phospholipase activity of the gene, the purified phospholipase/lipase MPIaG was loaded on the solid medium supplemented with phosphatydilcholine emulsion [0.5% (w/v) phosphatydilcholine, 0.5% (w/v) taurocholic acid, 20 mM CaCl2], followed by observing clear zone to confirm the activity.

[4] = LC-MS of phosphatidylcholine hydrolysis products (chain length and site specificity); type: biochemical
Protocol: Specificity of MPIaG over the location and chain length of phospholipid was investigated. To do so, phosphatydilcholine with different carbon chain lengths (C6, C7, C8, and C14) and 1-oleoly-2-palmitoyl-phosphatidylcholine (OPPC) were used. The purified MPIaG was added to 50 mM tris buffer (pH 8.0) containing 5 mM CaCl2 and 150 mM NaCl, followed by enzyme reaction along with 1 mM substrate for 12 hours at 25° C. The reaction product was analyzed by liquid chromatography mass spectrometry (LC-MS) using Finnigan LCQ. Advantage MAX ion trap mass spectrometer (Thermo Fisher Scientific) was equipped with electrospray ionization source. HPLC isolation was performed with HILIC guard column (4×2.0 mm, Phenomenex) and Kinetex HILIC column (2.6 μm, 2.1×100 mm, Phenomenex). The moving phase A was 10 mM ammonium formate whose pH was regulated as 3.0 with formic acid. The moving phase B was acetonitrile. Gradient elution was performed at the flow rate of 0.2 ml/min as follows: 0˜10 min., 10%˜40% A (linear gradient); 10˜20 min., 70% A (isocratic). Column temperature was room temperature, and the injection volume was 10 μL. Mass spectra were obtained from m/z in the negative ion mode 100˜1200 at the maximum ion injection time of 3 microscans and 200 ms.

[5] = Spectrophotometric assay with para-nitrophenyl ester substrate; type: biochemical
Protocol: as §1, §2
Spectrophotometric assay was also performed at room temperature to investigate the activity of MPIaG to para-nitrophenyl ester with various carbon chain lengths, the synthetic substrate. At this experiment, para-nitrophenyl butyrate (C4), para-nitrophenyl caprylate (C8), para-nitrophenyl caprate (C10), para-nitrophenyl laurate (C12), para-nitrophenyl palmitate (C16), and para-nitrophenyl stearate (C18) were used as substrates for the comparison of the activity. 5 mM Ca^2+ was added to the reaction solution. The reaction product para-nitrophenol was continuously measured for 5 minutes at OD450 using DU800 spectrophotometer (Beckman). To exclude the non-enzymatic hydrolysis value of the substrates, the activity was measured without enzyme for every measurement under different conditions, which would be the control reaction.

[6] = Substrate specificity to various phospholipids, clear zone on solid media with phospholipid emulsions; type: biochemical
Protocol: To investigate substrate specificity to various phospholipids, the purified phospholipase/lipase MPIaG was added to the solid media respectively supplemented with various phospholipid emulsions. Then, the activity over phospholipid was investigated by comparing the size of clear zone. The phospholipid emulsion was composed of 0.5% (v/v) phospholipid substrate, 0.5% (w/v) taurocholic acid, and 20 mM CaCl2. The substrates used herein were phosphatydilcholine (PC, 99% purity), phosphatidylethanolamine (PE, 97% purity), phosphatidylserine (PS, 97% purity), phosphatidylinositol (PI, 98% purity), phosphatidylglycerol (PG, 99% purity), and phosphatidic acid (PA, 98% purity).

[7] = Clear zone on solid medium supplemented with phosphatydilcholine emulsion (phospholipase activity); type: biochemical; conditions: 0.5% phosphatydilcholine, 0.5% taurocholic acid, 20 mM CaCl2
Protocol: as §3

[8] = Expression in E. coli BL21(DE3), Ni-NTA purification and SDS-PAGE
Protocol: The E. coli BL21(DE3)/pET22b(+)-MPIaG constructed in Example 4 was cultured in a liquid nutritive medium [1% (w/v) trypton, 0.5% (w/v) yeast extract, 0.5% (w/v) NaCl] containing ampicillin (100 μg/ml) until OD600 reached 0.6. IPTG (isopropyl-β-D-thiogalactopyranoside) was added to the culture solution (final conc.: 0.5 mM), followed by further culture for 12 hours. E. coli BL21(DE3)/pET22b(+)-MPIaG was obtained by centrifugation, which was suspended in binding buffer (50 mM Tris-HCl, pH 8, 500 mM NaCl, 10 mM imidazole). The cell suspension was lysed by ultrasonication. The cell lysate was centrifuged to obtain supernatant. The supernatant was loaded on Ni-NTA (nitriloteiacetic acid) column to elute phospholipase and lipase by imidazole gradient, followed by dialysis-concentration. To confirm the purified phospholipase/lipase MPIaG, SDS-PAGE (sodium dodecyl sulfate-polyacrylamide gel electrophoresis) was performed, followed by staining with Coomassie brilliant blue.

B1: MPIaG: catalytic domain of PlaG, SEQ. ID. NO: 5, protein having both phospholipase and lipase activities, from tidal flat metagenome (protein)
chain: LNQSDYEKAIDYGKLSAQAYDWDDYAAAHVGMGFFANIDDIKATDFATPNYVEVQSVGGYIDWWGTDGLDFKVFQNTETDDLVVAYKGTEPLSPVDWVADAEQIFGNSEQYQKAVDFARDLSAQVEQYNVQNGLTGDAAMQLSFTGHSLGGGLATASALATGREAMAFDAAGLSQGTINNLGLDIRHASKITNFNVKGDWLSDHNKQMDDTTLGSELAGIVPETKQYGNTYWLEGINDIADFGGWLVPDNNMAVDFAKSILNHAWHVYVYMLENDKFL
modifications: phospholipase/lipase MPlaG AA
- interfacial activity ([1]; as the concentration of tributyrin increased): showed interfacial activity
- specific activity by pH-stat ([1]; substrate Olive oil): 114.8 ± 11.3
- specific activity by pH-stat ([1]; substrate Tributyrin (C4)): 140 ± 6.4
- specific activity by pH-stat ([1]; substrate phosphatydilcholine): 13.4 ± 1.5
- specific enzyme activity ([1]; toward olive oil): 2957±144 Umg^−1
- specific enzyme activity ([1]; toward phosphatidylcholine): 1735±147 Umg^−1
- substrate chain-length preference ([1]; triglycerides C4-C18:1, pH titration): triglyceride having short acyl straight chain
- hydrolysis of triolein (C18:1) ([1]; triolein, not degraded by esterase): decomposed triolein
- melting temperature ([2]; 0 mM calcium): 38.5 °C
- melting temperature ([2]; 2 mM calcium ion): 47.2 °C
- melting temperature ([2]; 5 mM calcium ion): 49.2 °C
- clear zone formation on tricaprylin emulsion medium [3]: formed clear zone on both solid media
- hydrolase activity of phosphatydilcholine to lysophosphatidylcholine, best substrate ([4]; 1 mM substrate, 12 hours, 25° C., 5 mM CaCl2): highest to 1,2-Dioctanoyl-phosphatidylcholine (diC8PC)
- hydrolysis site on OPPC (site specificity) ([4]; OPPC, 25° C., 12 hours, LC-MS): phospholipase A1
- product 2-hexanoyl-lysophosphatidylcholine ([4]; diC6PC, LC-MS after reaction): 10.4%
- remaining substrate 1,2-dihexanoyl-phosphatidylcholine ([4]; diC6PC, LC-MS after reaction): 89.6%
- product 2-heptanoyl-lysophosphatidylcholine ([4]; diC7PC, LC-MS after reaction): 49.5%
- remaining substrate 1,2-diheptanoyl-phosphatidylcholine ([4]; diC7PC, LC-MS after reaction): 50.5%
- product 2-octanoyl-lysophosphatidylcholine ([4]; diC8PC, LC-MS after reaction): 50.4%
- remaining substrate 1,2-dioctanoyl-phosphatidylcholine ([4]; diC8PC, LC-MS after reaction): 49.6%
- product 2-myristoyl-lysophosphatidylcholine ([4]; diC14PC, LC-MS after reaction): 3.5%
- remaining substrate 1,2-dimyristoyl phosphatidylcholine ([4]; diC14PC, LC-MS after reaction): 96.5%
- substrate chain-length preference ([4]; phosphatidylcholines C6, C7, C8, C14): phospholipid having medium length acyl straight chain
- temperature of maximum activity [5]: 25 °C
- temperature up to which the enzyme is active [5]: up to 40 °C
- enzyme activity, % of maximum activity ([5]; at 5° C.): 39%
- pH of maximum activity ([5]; different pH buffers): 8
- substrate chain-length preference ([5]; para-nitrophenyl esters C4-C18, 5 mM Ca^2+): para-nitrophenyl ester having long acyl straight chain
- pH range in which enzyme activity was maintained stably ([5]; remaining activity after 180 minutes at different pH): 5˜10
- highest activity, to para-nitrophenyl palmitate (C16) ([5]; room temperature, 5 mM Ca^2+, reference of the fold not stated): approximately 112 times
- specific activity compared to the full-length phospholipase/lipase PlaG ([5]; synthetic substrate): at least two times increased specific activity
- activity to phospholipid substrate (clear zone) ([6]; substrate phosphatidic acid (PA)): did not decompose
- activity to phospholipid substrate (clear zone) ([6]; substrate phosphatidylethanolamine (PE)): excellent activity
- activity to phospholipid substrate (clear zone) ([6]; substrate phosphatidylglycerol (PG)): excellent activity
- activity to phospholipid substrate (clear zone) ([6]; substrate phosphatidylserine (PS)): did not decompose
- activity to phospholipid substrate (clear zone) ([6]; substrate phosphatydilcholine (PC)): excellent activity
- clear zone formation on phosphatydilcholine emulsion medium [7]: clear zone was clearly formed
- clear zone formation on phosphatydilcholine emulsion medium ([7]; listed as the gene of the present invention): formed clear zone on both solid media
- solubility of the expressed protein [8]: expressed in a water-soluble form
